Assay results as given in publication PMC3863716.
Read-outs that look alike come from different tables or passages of the source.

B1: human NMT2 (Homo sapiens) (protein)
chain: AKHRYQFWDTQPVPKLDEVITSHGAIEPDKDNVRQEPYSLPQGFMWDTLDLSDAEVLKELYTLLNENYVEDDDNMFRFDYSPEFLLWALRPPGWLLQWHCGVRVSSNKKLVGFISAIPANIRIYDSVKKMVEINFLCVHKKLRSKRVAPVLIREITRRVNLEGIFQAVYTAGVVLPKPIATCRYWHRSLNPRKLVEVKFSHLSRNMTLQRTMKLYRLPDVTKTSGLRPMEPKDIKSVRELINTYLKQFHLAPVMDEEEVAHWFLPREHIIDTFVVESPNGKLTDFLSFYTLPSTVMHHPAHKSLKAAYSFYNIHTETPLLDLMSDALILAKSKGFDVFNALDLMENKTFLEKLKFGIGDGNLQYYLYNWRCPGTDSEKVGLVLQ

What was measured:
[1] = test system: CCCCCCCCCCCCCC(=O)SCCNC(=O)CCNC(=O)[C@H](O)C(C)(C)COP(=O)(O)OP(=O)(O)OC[C@H]1O[C@@H](n2cnc3c(N)ncnc32)[C@H](O)[C@@H]1OP(=O)(O)O; assay: purified protein
purified protein = substrate: CCCCCCCCCCCCCC(=O)SCCNC(=O)CCNC(=O)[C@H](O)C(C)(C)COP(=O)(O)OP(=O)(O)OC[C@H]1O[C@@H](n2cnc3c(N)ncnc32)[C@H](O)[C@@H]1OP(=O)(O)O; assay: purified protein; remark: listed apart in the source

Molecule | Km [1] | Km (purified protein)
human NMT1 (Homo sapiens) | 8.24 ± 0.62 µM | 
B1 |  | 7.24 ± 0.79 µM
